The values below come from US20170211072A1 (COLD SPRING HARBOR LABORATORY, published 2017).

Test [1] has as its target T1, empty GST proteins (UniProt P08515 1-218 = GST).
T1 construct: Negative control of the pull-down
Put plainly: GST pull-down with purified proteins.

Test [2] has as its target T2, p53Ψ (Homo sapiens (Human), UniProt P04637 1-225).
T2 construct: Whole p53Ψ isoform expressed ectopically in A549 cells; It was tested in submitochondrial fractions by co-immunoprecipitation; also called p53-psi; p53Ψ isoform
Description: co-immunoprecipitation from submitochondrial fractions, immunoblot.

For test [3], the target named is T2, p53Ψ. Put plainly: co-immunoprecipitation from submitochondrial fractions with an anti-p53 N-terminal antibody, immunoblot.

T1 sequence (P08515 whole entry): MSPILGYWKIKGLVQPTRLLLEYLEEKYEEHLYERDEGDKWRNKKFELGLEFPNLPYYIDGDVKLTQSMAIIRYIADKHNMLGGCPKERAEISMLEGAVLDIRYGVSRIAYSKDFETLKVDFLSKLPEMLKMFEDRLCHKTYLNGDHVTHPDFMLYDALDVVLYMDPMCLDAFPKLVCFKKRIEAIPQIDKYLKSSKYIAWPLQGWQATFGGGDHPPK

B1: purified p53Ψ (aa 102-243) (other)
chain: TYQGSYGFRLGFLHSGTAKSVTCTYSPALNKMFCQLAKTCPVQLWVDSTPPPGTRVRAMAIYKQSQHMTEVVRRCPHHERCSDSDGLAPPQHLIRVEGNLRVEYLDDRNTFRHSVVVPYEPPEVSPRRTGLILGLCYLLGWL
notes: Purified recombinant fragment used in the GST pull-down; also called recombinant p53Ψ
For B1, the binding result in test [1] was “no binding”.

B2: BAK (other, UniProt Q16611 2-211, looked up)
chain: ASGQGPGPPRQECGEPALPSASEEQVAQDTEEVFRSYVFYRHQQEQEAEGVAAPADPEMVTLPLQPSSTMGQVGRQLAIIGDDINRRYDSEFQTMLQHLQPTAENAYEYFTKIATSLFESGINWGRVVALLGFGYRLALHVYQHGLTGFLGQVTRFVVDFMLHHCIARWIAQRGGWVAALNLGNGPILNVLVVLGVVLLGQFVVRRFFKS
As to B2, the binding result in test [2] was “no binding”.

B3: MnSOD (enzyme, UniProt P04179 25-222, looked up)
chain: KHSLPDLPYDYGALEPHINAQIMQLHHSKHHAAYVNNLNVTEEKYQEALAKGDVTAQIALQPALKFNGGGHINHSIFWTNLSPNGGGEPKGELLEAIKRDFGSFDKFKEKLTAASVGVQGSGWGWLGFNKERGHLQIAACPNQDPLQGTTGLIPLLGIDVWEHAYYLQYKNVRPDYLKAIWNVINWENVTERYMACKK
notes: Endogenous protein of A549 cells, a human cell line; also called SOD2
For the molecule B3, the binding result in test [3] is on record as “no binding”.
